Assay results taken from EP4624499A1 (Immunotech Applied Science Limited, dated 2025).

T1: CMV pp65 peptide on HLA-A*11:01 (human)
T1 peptide: ATVQGQNLK

B1: Tenth group of TCR (TCR, V domains shown)
Valpha: AQTVTQSQPEMSVQEAETVTLSCTYDTSESDYYLFWYKQPPSRQMILVIRQEAYKQQNATENRFSVNFQKAAKSFSLKISDSQLGDAAMYFCAYRSFYTGANSKLTFGKGITLSVRP
Vbeta: DAGVTQSPTHLIKTRGQQVTLRCSPKSGHDTVSWYQQALGQGPQFIFQYYEEEERQRGNFPDRFSGHQFPNYSSELNVNALLLGDSALYLCASSLYGGPGDQPQHFGDGTRLSIL
B2: Ninth group of TCR (TCR, V domains shown)
V domain 1: EDQVTQSPEALRLQEGESSSLNCSYTVSGLRGLFWYRQDPGKGPEFLFTLYSAGEEKEKERLKATLTKKESFLHITAPKPEDSATYLCVITTSGTYKYIFGTGTRLKVLA
V domain 2: NAGVTQTPKFQVLKTGQSMTLQCAQDMNHNSMYWYRQDPGMGLRLIYYSASEGTTDKGEVPNGYNVSRLNKREFSLRLESAAPSQTSVYFCASTINTYEQYFGPGTRLTVTE
B3: Ninth group of TCR (TCR, V domains shown)
Valpha: B2 V domain 1
Vbeta: NAGVTQTPKFQVLKTGQSMTLQCAQDMNHNSMYWYRQDPGMGLRLIYYSASEGTTDKGEVPNGYNVSRLNKREFSLRLESAAPSQTSVYFCASTINTYEQYFGPGTRLTVT
B4: Tenth group of TCR (TCR, V domains shown)
V domain 1: QTVTQSQPEMSVQEAETVTLSCTYDTSESDYYLFWYKQPPSRQMILVIRQEAYKQQNATENRFSVNFQKAAKSFSLKISDSQLGDAAMYFCAYRSFYTGANSKLTFGKGITLSVRP
V domain 2: DAGVTQSPTHLIKTRGQQVTLRCSPKSGHDTVSWYQQALGQGPQFIFQYYEEEERQRGNFPDRFSGHQFPNYSSELNVNALLLGDSALYLCASSLYGGPGDQPQHFGDGTRLSILE

Experiments:
[1] = target: T1, CMV pp65 peptide on HLA-A*11:01; assay: multimer staining
[2] = target: CMV pp65501-509 antigen complex on Caki-2-PP65 target cells (human; human cytomegalovirus, UniProt P61769 21-119); assay: cell-based or functional assay

| Binder | binding result [1] | killing activity at 4 h (RTCA), Caki-2-PP65 target cells, effector-to-target ratio 1:1 [2] [%] | killing activity at 4 h (RTCA), Caki-2-PP65 target cells, effector-to-target ratio 5:1 [2] [%] | killing activity at 4 h (RTCA), Caki-2-PP65 target cells, effector-to-target ratio 10:1 [2] [%] | killing activity at 4 h (RTCA), Caki-2-PP65 target cells, effector-to-target ratio 5:1 (ratio cell blank in this row, taken from r7) [2] [%] |
| --- | --- | --- | --- | --- | --- |
| B1 | recognises | – | – | – | – |
| B2 | – | 7.1 | 44.5 | 61.5 | – |
| B3 | recognises | – | – | – | – |
| B4 | – | 23.5 | – | 67.4 | 61.2 |
